# Laboratory results reported in paper PMC5159559.
# T1: APRIN (PDS5B) (UniProt Q9NTI5 1-1447)
# T1 sequence: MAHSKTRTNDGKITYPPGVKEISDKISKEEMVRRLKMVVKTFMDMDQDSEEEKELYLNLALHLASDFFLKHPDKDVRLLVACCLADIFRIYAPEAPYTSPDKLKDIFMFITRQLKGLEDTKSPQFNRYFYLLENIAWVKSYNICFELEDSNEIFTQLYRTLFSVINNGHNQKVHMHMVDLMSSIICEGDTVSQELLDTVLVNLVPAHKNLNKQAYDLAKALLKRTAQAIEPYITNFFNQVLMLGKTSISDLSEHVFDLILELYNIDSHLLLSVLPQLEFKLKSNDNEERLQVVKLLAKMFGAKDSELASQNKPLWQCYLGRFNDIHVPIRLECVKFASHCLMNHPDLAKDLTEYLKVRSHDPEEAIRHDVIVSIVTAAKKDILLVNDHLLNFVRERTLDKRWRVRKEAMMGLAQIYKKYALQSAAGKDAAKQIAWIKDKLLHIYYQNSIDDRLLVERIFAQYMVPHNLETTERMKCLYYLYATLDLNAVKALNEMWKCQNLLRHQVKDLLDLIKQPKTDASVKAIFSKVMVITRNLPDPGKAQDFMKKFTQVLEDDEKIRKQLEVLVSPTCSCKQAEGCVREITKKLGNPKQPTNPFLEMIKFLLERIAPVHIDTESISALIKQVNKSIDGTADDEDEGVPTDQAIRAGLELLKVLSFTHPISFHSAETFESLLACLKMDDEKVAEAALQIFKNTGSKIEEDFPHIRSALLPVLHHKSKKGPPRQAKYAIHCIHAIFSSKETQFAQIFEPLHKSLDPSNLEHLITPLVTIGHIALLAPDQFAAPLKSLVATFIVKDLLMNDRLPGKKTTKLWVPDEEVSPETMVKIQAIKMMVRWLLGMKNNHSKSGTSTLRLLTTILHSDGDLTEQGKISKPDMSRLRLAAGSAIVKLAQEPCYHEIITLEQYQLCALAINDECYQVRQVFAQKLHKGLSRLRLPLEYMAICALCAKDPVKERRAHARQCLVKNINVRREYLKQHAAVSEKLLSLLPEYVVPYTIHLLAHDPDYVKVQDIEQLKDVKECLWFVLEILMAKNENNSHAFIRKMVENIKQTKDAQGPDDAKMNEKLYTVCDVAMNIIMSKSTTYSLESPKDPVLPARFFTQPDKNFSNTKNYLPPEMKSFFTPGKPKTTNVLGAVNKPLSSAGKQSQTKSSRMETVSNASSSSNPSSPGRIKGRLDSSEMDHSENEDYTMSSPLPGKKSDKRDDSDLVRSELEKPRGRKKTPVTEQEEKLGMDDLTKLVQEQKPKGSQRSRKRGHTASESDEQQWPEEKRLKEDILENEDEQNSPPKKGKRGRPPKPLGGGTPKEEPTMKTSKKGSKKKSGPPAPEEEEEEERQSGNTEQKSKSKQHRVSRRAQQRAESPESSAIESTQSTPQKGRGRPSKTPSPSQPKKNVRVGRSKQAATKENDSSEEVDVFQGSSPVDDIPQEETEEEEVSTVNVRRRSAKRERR
# B1: ssDNA (JYM925) (ssDNA)
# DNA: GGGTGAACCTGCAGGTGGGCAAAGATGTCCTAGCAATGTAATCGTCAAGCTTTATGCCGT
# B2: Splayed arms (JYM925/JYM926) (structured_DNA)
# DNA 1: GGGTGAACCTGCAGGTGGGCAAAGATGTCCTAGCAATGTAATCGTCAAGCTTTATGCCGT
# DNA 2: ACGCTGCCGAATTCTACCAGTGCCAGCGACGGACATCTTTGCCCACCTGCAGGTTCACCC
# B3: Holliday junction (JYM925/926/927/928) (structured_DNA)
# DNA 1: GGGTGAACCTGCAGGTGGGCAAAGATGTCCTAGCAATGTAATCGTCAAGCTTTATGCCGT
# DNA 2: ACGCTGCCGAATTCTACCAGTGCCAGCGACGGACATCTTTGCCCACCTGCAGGTTCACCC
# DNA 3: ACGGCATAAAGCTTGACGATTACATTGCTACATGGAGCTGTCTAGAGGATCCGACTATCG
# DNA 4: CGATAGTCGGATCCTCTAGACAGCTCCATGGTCGCTGGCACTGGTAGAATTCGGCAGCGT
# B4: dsDNA (JYM925/JYM945) (dsDNA)
# DNA 1: GGGTGAACCTGCAGGTGGGCAAAGATGTCCTAGCAATGTAATCGTCAAGCTTTATGCCGT
# DNA 2: ACGGCATAAAGCTTGACGATTACATTGCTAGGACATCTTTGCCCACCTGCAGGTTCACCC
# Target: T1, APRIN (PDS5B)
# Assay: EMSA
row,Binder,binding result
1,B1,binds
2,B2,binds
3,B3,binds
4,B4,no binding
